According to the supplement of paper PMC10724198:
± gives the standard deviation of the averaged measurements.

System: Saccharomyces cerevisiae
Assay: protein stability index of tFT-peptide fusion (C-terminal peptide) (PSI (0-1 scale)); higher = more stable (slower turnover)
Settings: genetic background: wild type; temperature: 30 C
Protocol: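 Multiplexed protein stability (MPS) profiling in S. cerevisiae. Random 12-aa peptides (tFT-X12 library) are fused to the C-terminus of a sfGFP-mCherry tandem fluorescent timer, after mCherry and a GGGS linker. Cells are FACS-sorted into 8 mCherry/sfGFP bins and deep-sequenced. The protein stability index (PSI) is the read-weighted bin average, scaled from 0 (unstable) to 1 (stable). Only peptides with >10 reads are reported; cells were grown at 30 °C in SC-His with glucose.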
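Note: PSI is a weighted mean of sequencing reads over stability bins, variants kept only with over 10 reads, mCherry proximal and sfGFP distal, peptide attached via GGGS linker.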

Row | Sequence | protein stability index
1 | VCNFCFLPASLV | 0.636 ± 0.021
2 | GCWHFWQFFCHY | 0.678 ± 0.024
3 | ATALETWGGAQG | 0.691 ± 0.015
4 | RRGAVHWKQFTR | 0.732 ± 0.072
5 | KNCYPTKKIAIK | 0.638 ± 0.016
6 | SSVRIGRNLYVW | 0.754 ± 0.13
7 | PRPSFRPPPPLP | 0.722 ± 0.011
8 | VVGSWGRGGCGG | 0.639 ± 0.0017
9 | HRPPATPADPCS | 0.684 ± 0.019
10 | SPPRATVRPTSP | 0.824 ± 0.078
11 | VSAYLKNSGYRE | 0.6955 ± 0.0061
12 | SGRTQPRGKHNA | 0.683 ± 0.016
13 | FGCGLYPLRVLH | 0.604 ± 0.034
14 | CQVVALYCFSLL | 0.62 ± 0.068
15 | RPPFSPPSDLPL | 0.645 ± 0.025
16 | PHQPRDGSFHGT | 0.653 ± 0.011
17 | RLGGRGGRLGAE | 0.655 ± 0.0068
18 | LLPLRPRSLGPP | 0.693 ± 0.0011
19 | DFVESKVCSCSV | 0.666 ± 0.01
20 | DFMGLRCSARKA | 0.693 ± 0.016
21 | GPGTSSSGLVFT | 0.692 ± 0.029
22 | ALPRAPSRPPAR | 0.67 ± 0.042
23 | PHPVPPRLPFPS | 0.747 ± 0.038
24 | YGLVSFVCFNGG | 0.679 ± 0.042
25 | PCSPRLPPFPSP | 0.683 ± 0.017

Row | Sequence | protein stability index
26 | LWCPLPHGVLLL | 0.608 ± 0.053
27 | PPPPPPPLVPPL | 0.703 ± 0.12
28 | VLPPLSALAPFD | 0.764 ± 0.029
29 | TPGGPLLHSGFL | 0.755 ± 0.085
30 | VWSWGEGGGAVV | 0.7 ± 0.035
31 | LAWLGLHERTLF | 0.685 ± 0.0077
32 | ALLPLTHLPLHP | 0.666 ± 0.1
33 | SAPVPPSPPRPR | 0.8 ± 0.0089
34 | ACPPRPPFRSPS | 0.698 ± 0.026
35 | GGKWGVAGGGPW | 0.738 ± 0.074
36 | WSGWGYGISALL | 0.681 ± 0.047
37 | WSRLAGMGRGGA | 0.764 ± 0.013
38 | WDGWWGGAGVGE | 0.695 ± 0.077
39 | DKKEEEKKSTKH | 0.70302 ± 0.00026
40 | PVPADGPSPPQP | 0.721 ± 0.035
41 | WWVGVVGCGSGA | 0.676 ± 0.11
42 | REGYGVGRERGD | 0.649 ± 0.017
43 | EKKHNKKEVIKK | 0.699 ± 0.009
44 | VLQSTTNPPTSW | 0.631 ± 0.05
45 | KEKNKIKNREVK | 0.618 ± 0.052
46 | APVHPPPGFLLP | 0.695 ± 0.023
47 | VPPPRLCPERPH | 0.719 ± 0.063
48 | KKEQKRKKKEKQ | 0.758 ± 0.098
49 | SLFSFSLSLCSP | 0.653 ± 0.06
50 | WGSVGVVGLFSG | 0.69 ± 0.057

Row | Sequence | protein stability index
51 | LPSPSSTLSPLR | 0.674 ± 0.059
52 | HLIQPDPRASNN | 0.751 ± 0.098
53 | SGVAAPVRPRSV | 0.854 ± 0.11
54 | MKRLTCGGFNLE | 0.704 ± 0.03
55 | TPMEKRQDANIN | 0.691 ± 0.015
56 | WQIDVWDSNCVM | 0.692 ± 0.027
57 | PGCLMGSRGFSN | 0.785 ± 0.18
58 | SQMMLKQKFLRR | 0.628 ± 0.024
59 | RTGAPSGEACCA | 0.676 ± 0.026
60 | YLRGRCSSLSLR | 0.698 ± 0.036
61 | ALFPNALYQTLL | 0.723 ± 0.05
62 | RGGPSPAASSRG | 0.725 ± 0.057
63 | SFAQANRYLTSL | 0.699 ± 0.012
64 | EGYTPETPCYQK | 0.688 ± 0.029
65 | VGAIGYWCPEWR | 0.651 ± 0.019
66 | GAGGVGGTSGGK | 0.675 ± 0.084
67 | IARTGLGIIIKI | 0.663 ± 0.054
68 | RFDFSVTPHLGF | 0.668 ± 0.036
69 | DLPDGRRFIVIG | 0.682 ± 0.08
70 | KRHCDRVLKMWH | 0.641 ± 0.11
71 | RCWEWADWPRDG | 0.764 ± 0.029
72 | KNIEKKKQKDTQ | 0.645 ± 0.058
73 | KNITVVKKAFDA | 0.654 ± 0.024
74 | WRPVSVVSPLSD | 0.677 ± 0.081
75 | TLKMKHKPKKNL | 0.6583 ± 0.0035

Row | Sequence | protein stability index
76 | DCYSKLQSRKCG | 0.682 ± 0.018
77 | GGCVCGPRVLGV | 0.67 ± 0.031
78 | FKRLSTDCSVNS | 0.687 ± 0.061
79 | CGVGEGGLLGWL | 0.745 ± 0.072
80 | GGCGGGCGACVV | 0.701 ± 0.025
81 | PPPLPPLSPPPS | 0.749 ± 0.023
82 | QIVDHCLVWLRG | 0.628 ± 0.0066
83 | PPPPPPTRCHTP | 0.728 ± 0.056
84 | KKKKNKKIKINE | 0.6874 ± 0.0033
85 | PPPTSSALPALV | 0.736 ± 0.037
86 | RKKRERIREKKN | 0.494 ± 0.043
87 | LATDVGHRLLGI | 0.707 ± 0.042
88 | IFRERWGCFEAI | 0.763 ± 0.13
89 | LKTGTAAGVKDH | 0.684 ± 0.049
90 | APVTFDKSHVST | 0.669 ± 0.031
91 | CDSVATFCLRLF | 0.6234 ± 0.0031
92 | LANVGLDVSRIS | 0.696 ± 0.012
93 | GKYKKGNSIAIE | 0.598 ± 0.012
94 | PSGPKAPPHAGR | 0.6757 ± 0.0058
95 | LRSPAILFSFAF | 0.602 ± 0.043
96 | RVPLHSSTVFWL | 0.7 ± 0.04
97 | VNILKRQKRARG | 0.72 ± 0.052
98 | PPPPTPPYTPVP | 0.623 ± 0.032
